According to patent US10562947B2, “Compositions and methods for preventing or treating diseases, conditions or processes characterized by aberrant fibroblast proliferation and extracellular matrix deposition” (MOERAE MATRIX, INC., priority 2011, dated 2020):
Where a SMILES comes first, the peptide text is derived from it.

Tests used:
Abl(H396P)(h) = Abl(H396P)(h) (Homo sapiens, UniProt P00519, H396P); assay: Kinase Profiling Assay; type: biochemical; conditions: 100 μM peptide
In short: (§1)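 Duplicate activity readings per kinase; peptide inhibitors of MK2 profiled against 266 human kinases for selectivity.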

Aurora-A(h) = molecular target: T1, Aurora-A(h) (Homo sapiens, UniProt O14965); assay: Kinase Profiling Assay; type: biochemical; conditions: 100 μM peptide
T1 sequence (O14965 1-403): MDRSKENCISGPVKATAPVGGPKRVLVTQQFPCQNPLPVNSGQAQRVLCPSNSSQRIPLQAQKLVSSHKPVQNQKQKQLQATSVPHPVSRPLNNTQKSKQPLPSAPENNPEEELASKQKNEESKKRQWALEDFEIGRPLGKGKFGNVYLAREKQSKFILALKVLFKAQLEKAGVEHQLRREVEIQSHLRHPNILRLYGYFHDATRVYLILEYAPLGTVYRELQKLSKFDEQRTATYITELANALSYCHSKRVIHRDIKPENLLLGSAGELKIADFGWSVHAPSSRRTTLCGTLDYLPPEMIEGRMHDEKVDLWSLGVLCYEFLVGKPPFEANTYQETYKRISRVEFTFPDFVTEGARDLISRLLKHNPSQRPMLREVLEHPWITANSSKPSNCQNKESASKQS
In short: as §1

EGFR(T790M)(h) = EGFR(T790M)(h) (Homo sapiens, UniProt P00533, T790M); assay: Kinase Profiling Assay; type: biochemical; conditions: 100 μM peptide
In short: as §1

HIPK3(h) = molecular target: T2, HIPK3(h) (Homo sapiens, UniProt Q9H422); assay: Kinase Profiling Assay; type: biochemical; conditions: 100 μM peptide
T2 construct: purchased Millipore
T2 sequence (Q9H422 whole entry): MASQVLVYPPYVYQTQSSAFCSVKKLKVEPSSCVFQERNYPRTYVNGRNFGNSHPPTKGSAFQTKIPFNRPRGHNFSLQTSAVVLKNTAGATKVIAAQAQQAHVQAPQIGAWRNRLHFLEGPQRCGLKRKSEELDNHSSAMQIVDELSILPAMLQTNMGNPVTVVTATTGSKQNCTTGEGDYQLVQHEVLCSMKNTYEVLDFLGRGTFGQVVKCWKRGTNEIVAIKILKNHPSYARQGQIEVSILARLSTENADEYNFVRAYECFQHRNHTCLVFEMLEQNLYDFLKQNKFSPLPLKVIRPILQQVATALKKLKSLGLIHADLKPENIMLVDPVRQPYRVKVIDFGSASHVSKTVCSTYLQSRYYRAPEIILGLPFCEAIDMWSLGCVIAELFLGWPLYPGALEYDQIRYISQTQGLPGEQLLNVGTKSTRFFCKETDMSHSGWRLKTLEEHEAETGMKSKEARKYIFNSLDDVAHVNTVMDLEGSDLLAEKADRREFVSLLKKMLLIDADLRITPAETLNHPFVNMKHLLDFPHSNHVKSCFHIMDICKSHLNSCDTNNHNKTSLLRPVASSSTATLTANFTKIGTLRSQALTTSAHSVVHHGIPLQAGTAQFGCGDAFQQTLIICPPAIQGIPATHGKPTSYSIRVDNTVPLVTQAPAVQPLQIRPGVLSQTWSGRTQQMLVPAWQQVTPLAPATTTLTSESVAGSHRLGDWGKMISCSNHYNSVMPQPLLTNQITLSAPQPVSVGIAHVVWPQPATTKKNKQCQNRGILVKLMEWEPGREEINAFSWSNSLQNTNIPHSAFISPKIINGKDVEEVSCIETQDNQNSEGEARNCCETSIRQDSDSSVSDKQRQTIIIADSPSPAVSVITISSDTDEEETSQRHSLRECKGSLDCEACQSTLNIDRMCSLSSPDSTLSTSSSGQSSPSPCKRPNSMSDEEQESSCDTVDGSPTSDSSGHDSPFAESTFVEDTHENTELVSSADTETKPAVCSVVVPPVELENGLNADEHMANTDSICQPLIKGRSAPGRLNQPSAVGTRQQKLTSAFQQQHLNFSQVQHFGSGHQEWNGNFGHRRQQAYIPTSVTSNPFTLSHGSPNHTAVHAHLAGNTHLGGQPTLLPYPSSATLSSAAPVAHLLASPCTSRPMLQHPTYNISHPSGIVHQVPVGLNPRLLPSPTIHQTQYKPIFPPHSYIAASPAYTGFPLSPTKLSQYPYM
In short: as §1

Lck(h) = Lck(h) (Homo sapiens, UniProt P06239); assay: Kinase Profiling Assay; type: biochemical; conditions: 100 μM peptide
Sequence of Lck(h) (P06239 whole entry): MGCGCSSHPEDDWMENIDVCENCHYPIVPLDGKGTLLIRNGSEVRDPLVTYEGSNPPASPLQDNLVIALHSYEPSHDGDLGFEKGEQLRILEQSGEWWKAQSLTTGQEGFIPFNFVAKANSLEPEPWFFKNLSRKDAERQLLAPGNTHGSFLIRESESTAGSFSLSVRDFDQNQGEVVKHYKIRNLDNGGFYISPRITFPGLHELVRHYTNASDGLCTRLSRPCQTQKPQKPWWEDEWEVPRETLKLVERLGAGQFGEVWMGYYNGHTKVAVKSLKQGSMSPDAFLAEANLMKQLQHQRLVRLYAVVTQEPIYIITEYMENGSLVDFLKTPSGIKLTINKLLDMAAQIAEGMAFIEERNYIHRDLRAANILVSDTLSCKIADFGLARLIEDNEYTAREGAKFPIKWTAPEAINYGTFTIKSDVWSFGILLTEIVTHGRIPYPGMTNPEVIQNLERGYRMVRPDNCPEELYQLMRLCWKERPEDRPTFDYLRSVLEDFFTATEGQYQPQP
In short: as §1

IL-6 = assay: Circulating inflammatory cytokines, bleomycin treatment model; type: in vivo, mouse; conditions: intraperitoneal or nebulized; 24 hours after final administration
[1] = test system: Porcine airway smooth muscle (PASM); assay: ISO-induced relaxation of airway smooth muscle rings in muscle bath; conditions: 100 μM for 1 hr; CCh-contracted rings; n=3
Excerpt: Porcine airway smooth muscle (PASM) rings were isolated from second generation bronchi, cartilage was peeled off and then hung in a muscle bath and equilibrated in Kreb's buffer for 3 hrs. […] ISO is a β-adrenergic agonist that relaxes almost all varieties of […] when the tone is high, but its action is most pronounced on bronchial and gastrointestinal smooth muscle. It prevents or relieves bronchoconstrution. Its effect in asthma maybe due in part to an additional action to inhibit antigen-induced release of histamine and other mediators of inflammation; this action is shared by β2-receptor-selective stimulants. Goodman & Gilman's The Pharmacological Basis of Therapeutics, Joel G. Hardman and Lee E. Limberd, Eds., 10th Ed. […] Force was normalized to the weight and length of the tissue and converted to stress and relaxation induced was calculated.

CK2α2(h) = CK2α2(h) (Homo sapiens, UniProt P19784); assay: Kinase Profiling Assay; type: biochemical; conditions: 100 μM peptide
Sequence of CK2α2(h) (P19784 whole entry): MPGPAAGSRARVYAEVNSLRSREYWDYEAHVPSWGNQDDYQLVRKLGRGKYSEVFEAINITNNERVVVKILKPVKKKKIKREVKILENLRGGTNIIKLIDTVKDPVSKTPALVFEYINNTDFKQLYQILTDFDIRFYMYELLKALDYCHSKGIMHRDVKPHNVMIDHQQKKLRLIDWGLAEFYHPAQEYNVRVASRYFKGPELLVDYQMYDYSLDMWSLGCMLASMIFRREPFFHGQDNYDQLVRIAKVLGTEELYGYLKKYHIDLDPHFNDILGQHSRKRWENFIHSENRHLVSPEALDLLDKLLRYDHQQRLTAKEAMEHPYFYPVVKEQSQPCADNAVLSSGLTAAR
In short: as §1

GRK5(h) = molecular target: T3, GRK5(h) (Homo sapiens, UniProt P34947); assay: Kinase Profiling Assay; type: biochemical; conditions: 100 μM peptide
T3 construct: purchased Millipore
T3 sequence (P34947 whole entry): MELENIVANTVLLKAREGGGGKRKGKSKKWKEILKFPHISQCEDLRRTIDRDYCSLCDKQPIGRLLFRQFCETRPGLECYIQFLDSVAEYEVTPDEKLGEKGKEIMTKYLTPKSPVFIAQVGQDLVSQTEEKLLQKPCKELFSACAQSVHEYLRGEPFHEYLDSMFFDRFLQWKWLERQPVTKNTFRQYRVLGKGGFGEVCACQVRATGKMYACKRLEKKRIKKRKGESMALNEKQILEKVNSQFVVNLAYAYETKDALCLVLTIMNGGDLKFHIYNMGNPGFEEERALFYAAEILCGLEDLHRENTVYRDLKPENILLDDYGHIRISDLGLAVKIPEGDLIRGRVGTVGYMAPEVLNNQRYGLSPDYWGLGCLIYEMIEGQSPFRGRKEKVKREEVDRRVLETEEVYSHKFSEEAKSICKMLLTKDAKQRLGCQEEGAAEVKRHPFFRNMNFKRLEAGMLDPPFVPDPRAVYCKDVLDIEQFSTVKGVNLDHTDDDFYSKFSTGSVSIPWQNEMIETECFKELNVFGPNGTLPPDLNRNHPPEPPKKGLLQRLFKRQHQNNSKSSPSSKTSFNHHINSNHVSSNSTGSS
In short: as §1

JAK3(h) = molecular target: T4, JAK3(h) (Homo sapiens, UniProt P52333); assay: Kinase Profiling Assay; type: biochemical; conditions: 100 μM peptide
T4 construct: purchased Millipore
T4 sequence (P52333 1-1124): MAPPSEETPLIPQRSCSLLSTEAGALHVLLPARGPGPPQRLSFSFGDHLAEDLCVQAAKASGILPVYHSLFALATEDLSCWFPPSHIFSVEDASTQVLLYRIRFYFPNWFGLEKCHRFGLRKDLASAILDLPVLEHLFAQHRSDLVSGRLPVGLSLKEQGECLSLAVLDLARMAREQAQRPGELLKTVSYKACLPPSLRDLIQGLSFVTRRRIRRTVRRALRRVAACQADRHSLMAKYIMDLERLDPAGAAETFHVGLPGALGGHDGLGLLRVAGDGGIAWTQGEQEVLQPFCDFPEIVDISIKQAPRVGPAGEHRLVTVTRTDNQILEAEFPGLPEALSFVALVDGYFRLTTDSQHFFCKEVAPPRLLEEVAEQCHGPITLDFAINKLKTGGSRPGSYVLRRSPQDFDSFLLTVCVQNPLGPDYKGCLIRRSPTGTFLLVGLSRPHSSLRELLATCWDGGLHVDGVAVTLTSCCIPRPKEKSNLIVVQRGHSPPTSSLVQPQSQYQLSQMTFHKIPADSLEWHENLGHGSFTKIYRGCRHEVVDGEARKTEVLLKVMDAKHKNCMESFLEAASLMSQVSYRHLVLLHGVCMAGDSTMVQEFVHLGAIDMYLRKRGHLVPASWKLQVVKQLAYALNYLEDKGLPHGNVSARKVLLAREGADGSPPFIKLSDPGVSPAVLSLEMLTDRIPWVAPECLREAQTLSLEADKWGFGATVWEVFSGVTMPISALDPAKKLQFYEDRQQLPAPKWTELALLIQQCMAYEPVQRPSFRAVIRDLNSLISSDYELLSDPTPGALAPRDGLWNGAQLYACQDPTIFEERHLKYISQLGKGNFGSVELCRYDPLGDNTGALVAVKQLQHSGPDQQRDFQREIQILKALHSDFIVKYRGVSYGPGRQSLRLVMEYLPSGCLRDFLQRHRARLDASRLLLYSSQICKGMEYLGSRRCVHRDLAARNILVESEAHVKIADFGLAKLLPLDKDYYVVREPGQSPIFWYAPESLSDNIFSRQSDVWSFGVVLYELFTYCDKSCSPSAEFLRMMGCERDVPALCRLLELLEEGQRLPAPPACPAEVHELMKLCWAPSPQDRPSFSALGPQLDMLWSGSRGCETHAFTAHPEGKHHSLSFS
In short: as §1

Snk(h) = Snk(h) (Homo sapiens, UniProt Q9NYY3); assay: Kinase Profiling Assay; type: biochemical; conditions: 100 μM peptide
Sequence of Snk(h) (Q9NYY3 whole entry): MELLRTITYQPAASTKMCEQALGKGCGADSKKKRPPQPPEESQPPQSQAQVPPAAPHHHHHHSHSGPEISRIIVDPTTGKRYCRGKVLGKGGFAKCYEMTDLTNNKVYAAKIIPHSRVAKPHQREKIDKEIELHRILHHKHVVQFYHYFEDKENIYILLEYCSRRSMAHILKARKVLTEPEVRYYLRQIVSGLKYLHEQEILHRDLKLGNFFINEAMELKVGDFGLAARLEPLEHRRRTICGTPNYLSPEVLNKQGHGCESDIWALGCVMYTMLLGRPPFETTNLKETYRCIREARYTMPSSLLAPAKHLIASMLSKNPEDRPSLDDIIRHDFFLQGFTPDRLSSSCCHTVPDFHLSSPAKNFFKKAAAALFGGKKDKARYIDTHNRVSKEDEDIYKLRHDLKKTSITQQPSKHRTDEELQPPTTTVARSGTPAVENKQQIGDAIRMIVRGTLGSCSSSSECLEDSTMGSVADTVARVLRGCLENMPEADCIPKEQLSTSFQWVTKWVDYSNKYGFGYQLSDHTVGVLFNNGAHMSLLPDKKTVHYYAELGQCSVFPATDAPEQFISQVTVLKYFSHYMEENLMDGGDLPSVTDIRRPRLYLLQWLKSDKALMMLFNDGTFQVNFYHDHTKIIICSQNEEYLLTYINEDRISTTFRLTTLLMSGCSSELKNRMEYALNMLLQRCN
In short: as §1

Tie2(R849W)(h) = Tie2(R849W)(h) (Homo sapiens, UniProt Q02763, R849W); assay: Kinase Profiling Assay; type: biochemical; conditions: 100 μM peptide
Sequence of Tie2(R849W)(h) (Q02763 23-1124 R849W): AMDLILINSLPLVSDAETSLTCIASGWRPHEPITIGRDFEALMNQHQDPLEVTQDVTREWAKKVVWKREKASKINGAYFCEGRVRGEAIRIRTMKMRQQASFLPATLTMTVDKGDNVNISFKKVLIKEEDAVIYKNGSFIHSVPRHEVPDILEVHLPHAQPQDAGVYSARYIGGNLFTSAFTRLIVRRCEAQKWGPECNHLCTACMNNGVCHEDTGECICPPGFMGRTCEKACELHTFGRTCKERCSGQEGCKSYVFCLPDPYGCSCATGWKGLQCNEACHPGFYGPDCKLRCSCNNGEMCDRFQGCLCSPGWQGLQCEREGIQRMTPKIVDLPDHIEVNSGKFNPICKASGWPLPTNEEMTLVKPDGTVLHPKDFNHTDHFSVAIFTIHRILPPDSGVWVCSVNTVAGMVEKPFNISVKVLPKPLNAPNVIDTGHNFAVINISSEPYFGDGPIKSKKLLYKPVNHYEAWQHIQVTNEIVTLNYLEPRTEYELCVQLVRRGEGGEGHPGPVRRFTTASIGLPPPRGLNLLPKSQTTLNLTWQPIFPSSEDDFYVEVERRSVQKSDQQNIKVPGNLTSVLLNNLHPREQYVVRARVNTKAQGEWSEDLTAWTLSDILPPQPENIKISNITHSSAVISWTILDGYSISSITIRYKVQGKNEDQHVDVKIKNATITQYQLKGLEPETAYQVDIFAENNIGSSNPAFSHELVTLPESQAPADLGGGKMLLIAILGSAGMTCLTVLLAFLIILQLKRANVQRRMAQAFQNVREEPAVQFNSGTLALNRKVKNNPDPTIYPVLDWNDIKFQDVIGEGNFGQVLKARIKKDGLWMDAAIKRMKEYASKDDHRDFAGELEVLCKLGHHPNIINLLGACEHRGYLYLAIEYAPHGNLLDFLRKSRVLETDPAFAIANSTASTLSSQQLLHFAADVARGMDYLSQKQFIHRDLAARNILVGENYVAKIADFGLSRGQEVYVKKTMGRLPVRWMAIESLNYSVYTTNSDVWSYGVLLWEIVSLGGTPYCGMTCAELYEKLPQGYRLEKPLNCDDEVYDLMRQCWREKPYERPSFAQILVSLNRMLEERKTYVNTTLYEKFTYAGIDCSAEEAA
In short: as §1

Compound: FAKLAARLYRKALARQLGVAA [MMI-0300]
- Abl(H396P)(h) % activity (Abl(H396P)(h)): 101%
- Aurora-A(h) % activity (Aurora-A(h)): 92%
- EGFR(T790M)(h) % activity (EGFR(T790M)(h)): 100%
- HIPK3(h) % activity (HIPK3(h)): 93%
- Lck(h) % activity (Lck(h)): −2%

Compound: CC(C)C[C@H](NC(=O)[C@H](C)NC(=O)[C@H](CCCCN)NC(=O)[C@H](C)NC(=O)[C@H](CCCNC(=N)N)NC(=O)[C@H](C)NC(=O)[C@H](CCC(N)=O)NC(=O)[C@H](CCCNC(=N)N)NC(=O)[C@H](C)NC(=O)[C@H](C)NC(=O)[C@H](C)NC(=O)[C@H](CCCNC(=N)N)NC(=O)[C@H](C)NC(=O)[C@@H](N)Cc1ccc(O)cc1)C(=O)N[C@@H](C)C(=O)N[C@@H](CCCNC(=N)N)C(=O)N[C@@H](CCC(N)=O)C(=O)N[C@@H](CC(C)C)C(=O)NCC(=O)N[C@H](C(=O)N[C@@H](C)C(=O)N[C@@H](C)C(=O)O)C(C)C [MMI-0100] (H-YARAAARQARAKALARQLGVAA-OH; N-terminus and C-terminus assumed)
- plasma level of IL-6 (IL-6): significantly reduced
- enhancement of ISO induced relaxation [1]: 13%

Compound: KAFAKLAARLYRKALARQLGVAA [MMI-0400]
- CK2α2(h) % activity (CK2α2(h)): 96%
- GRK5(h) % activity (GRK5(h)): 131%
- JAK3(h) % activity (JAK3(h)): 122%
- Snk(h) % activity (Snk(h)): 131%
- Tie2(R849W)(h) % activity (Tie2(R849W)(h)): 108%

Compound: YARAAARQARAKALNRQLGVA (Mammalian) [MMI-0200]
- CK2α2(h) % activity (CK2α2(h)): 88%
- GRK5(h) % activity (GRK5(h)): 135%
- Tie2(R849W)(h) % activity (Tie2(R849W)(h)): 89%

Compound: HRRIKAWLKKIKALARQLGVAA (Mammalian) [MMI-0500]
- Abl(H396P)(h) % activity (Abl(H396P)(h)): 51%
- Aurora-A(h) % activity (Aurora-A(h)): 110%
- EGFR(T790M)(h) % activity (EGFR(T790M)(h)): 70%
- HIPK3(h) % activity (HIPK3(h)): 85%
- JAK3(h) % activity (JAK3(h)): 95%
- Lck(h) % activity (Lck(h)): 359%
- Snk(h) % activity (Snk(h)): 122%
